Assay [1] concerns the target T1, full-length human vitamin D receptor (hVDR, amino acid 1-427), His-tagged (human, UniProt P11473 1-427).
T1 construct: For microscale thermophoresis the protein was labelled with the Red-NHS second generation labelling kit (NanoTemper); also called NR1I1; hVDR full-length; source: E. coli BL21 DE3, purified (HisTrap, SEC)
T1 sequence (looked up): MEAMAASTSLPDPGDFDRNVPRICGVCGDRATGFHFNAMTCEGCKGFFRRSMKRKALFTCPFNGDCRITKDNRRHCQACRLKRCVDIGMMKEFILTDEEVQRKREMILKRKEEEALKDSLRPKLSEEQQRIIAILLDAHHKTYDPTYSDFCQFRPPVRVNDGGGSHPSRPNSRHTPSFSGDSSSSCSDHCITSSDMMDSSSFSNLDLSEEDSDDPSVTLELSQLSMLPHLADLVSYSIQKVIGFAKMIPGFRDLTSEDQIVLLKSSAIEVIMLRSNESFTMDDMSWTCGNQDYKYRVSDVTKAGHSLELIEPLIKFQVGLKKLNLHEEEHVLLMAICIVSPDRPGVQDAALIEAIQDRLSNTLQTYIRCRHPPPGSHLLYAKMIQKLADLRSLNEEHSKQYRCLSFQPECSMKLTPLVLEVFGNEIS
Briefly: SEC; mixed in stoichiometric amounts and purified on HiLoad Superdex 200 in 20 mM Tris pH 8.0, 75 mM NaCl, 75 mM KCl, 2 mM CHAPS, 5% glycerol, 4 mM MgSO4, 1 mM TCEP; heterodimer then used for HDX-MS (apo, 1,25D3, ZK). Particulars: both partners purified. For orientation: SEC sorts molecules by how far they enter the pores of the column.

The target of assay [2] is T2, ligand binding domain of hVDR (aa 118-427), His-tagged (human, UniProt P11473 118-427).
T2 construct: also called hVDR LBD; source: E. coli BL21 DE3, purified (HisTrap, SEC)
T2 sequence (looked up): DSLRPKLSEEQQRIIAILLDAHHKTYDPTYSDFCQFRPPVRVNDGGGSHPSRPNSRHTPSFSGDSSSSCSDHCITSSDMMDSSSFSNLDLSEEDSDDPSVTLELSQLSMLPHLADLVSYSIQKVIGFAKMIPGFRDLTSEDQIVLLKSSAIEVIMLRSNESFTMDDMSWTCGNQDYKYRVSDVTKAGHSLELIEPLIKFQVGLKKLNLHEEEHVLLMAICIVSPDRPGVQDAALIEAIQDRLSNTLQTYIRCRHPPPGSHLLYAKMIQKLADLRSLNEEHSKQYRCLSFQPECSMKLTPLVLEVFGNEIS
Briefly: SPR; Biacore T200, hRXRα LBD monomers amine-coupled on CM5 (400-500 RU); hVDR LBD 1-30 µM without ligand or with a 3-fold excess of 1,25D3 or ZK; 50 mM Tris pH 7.5, 150 mM NaCl, 1 mM TCEP, 0.005% Tween 20; steady state fit. Conditions: both partners purified. On the technique in general: SPR reads the build-up and loss of mass on a sensor chip optically.

Assay [3] has as its target T3, full-length human vitamin D receptor (hVDR, amino acid 1-427), His-tagged (human, UniProt P11473 1-427).
T3 chain: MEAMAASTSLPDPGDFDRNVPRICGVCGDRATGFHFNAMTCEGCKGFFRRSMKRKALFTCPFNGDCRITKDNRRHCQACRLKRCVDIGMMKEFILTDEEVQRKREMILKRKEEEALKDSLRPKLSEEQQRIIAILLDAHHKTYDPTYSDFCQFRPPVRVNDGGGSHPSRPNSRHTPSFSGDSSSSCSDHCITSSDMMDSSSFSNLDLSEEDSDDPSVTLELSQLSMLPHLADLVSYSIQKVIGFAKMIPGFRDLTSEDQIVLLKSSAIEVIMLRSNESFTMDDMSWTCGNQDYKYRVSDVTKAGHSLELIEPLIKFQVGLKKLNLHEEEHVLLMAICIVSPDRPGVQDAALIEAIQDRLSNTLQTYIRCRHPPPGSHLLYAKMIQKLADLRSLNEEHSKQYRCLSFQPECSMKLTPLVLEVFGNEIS
Nature of the assay: MST; ZK-bound VDR.

For assay [4], the target named is T1, full-length human vitamin D receptor …. Nature of the assay: MST; Monolith NT.115; 10 nM Red-NHS labelled full-length hVDR with or without ZK; unlabelled WBP4 122-196 from 100 µM to 1 nM; 20 mM Hepes pH 7.5, 200 mM NaCl, 2% glycerol, 1 mM TCEP, 0.05% Tween 20; 25 °C; 1:1 fit, apparent Kd. Conditions: both partners purified.

B1: N-terminal domain truncated human RXRalpha (hRXRαΔNTD, amino acid 130-462), His-tagged (domain or fragment, UniProt P19793 130-462, looked up)
chain: FTKHICAICGDRSSGKHYGVYSCEGCKGFFKRTVRKDLTYTCRDNKDCLIDKRQRNRCQYCRYQKCLAMGMKREAVQEERQRGKDRNENEVESTSSANEDMPVERILEAELAVEPKTETYVEANMGLNPSSPNDPVTNICQAADKQLFTLVEWAKRIPHFSELPLDDQVILLRAGWNELLIASFSHRSIAVKDGILLATGLHVHRNSAHSAGVGAIFDRVLTELVSKMRDMQMDKTELGCLRAIVLFNPDSKGLSNPAEVEALREKVYASLEAYCKHKYPEQPGRFAKLLLRLPALRSIGLKCLEHLFFFKLIGDTPIDTFLMEMLEAPHQMT
notes: source: E. coli BL21 DE3, purified (HisTrap, SEC)
B1: in assay [1], the binding result is reported as “binds”.

B2: ligand binding domain of hRXRα (aa 223-462), His-tagged (domain or fragment, human, UniProt P19793 223-462, looked up)
chain: TSSANEDMPVERILEAELAVEPKTETYVEANMGLNPSSPNDPVTNICQAADKQLFTLVEWAKRIPHFSELPLDDQVILLRAGWNELLIASFSHRSIAVKDGILLATGLHVHRNSAHSAGVGAIFDRVLTELVSKMRDMQMDKTELGCLRAIVLFNPDSKGLSNPAEVEALREKVYASLEAYCKHKYPEQPGRFAKLLLRLPALRSIGLKCLEHLFFFKLIGDTPIDTFLMEMLEAPHQMT
notes: Immobilised as monomers on the SPR chip; also called hRXRα LBD; source: E. coli BL21 DE3, purified (HisTrap, SEC)
For B2, the binding result in assay [2] was “binds”.

B3: hWBP4 polypeptide (amino acid 122-196) encompassing the two WW domains (domain or fragment, human, UniProt O75554 122-196, looked up)
chain: DPSKGRWVEGITSEGYHYYYDLISGASQWEKPEGFQGDLKKTAVKTVWVEGLSEDGFTYYYNTETGESRWEKPDD
notes: also called FBP21; source: E. coli BL21 DE3, purified (glutathione sepharose, thrombin cleavage, SEC); not shown: GST, N-terminal, cleaved
In general, Kd refers to the concentration at which binding is half-saturated. Lower therefore signals a tighter complex. Regarding B3, in assay [3], the Kd was found to be 11 µM. Besides, the “fold increase of the affinity in the presence of ZK against without ZK” value in assay [4] is approximately 2 fold.

The values are drawn from PMC7721737, “Cytosolic sequestration of the vitamin D receptor as a therapeutic option for vitamin D-induced hypercalcemia” (Nature Communications, 2020).
